According to patent publication US20220193132A1 (NATIONAL RESEARCH COUNCIL OF CANADA, published 2022):

T1: EGFRvIII fragment amino acid residues 3 to 18, displayed on yeast (human)
T1 construct: also called aa 3-18
T1 peptide: EKKGNYVVTDHGSCVR

T2: EGFRvIII fragment amino acid residues 1 to 18, displayed on yeast (human)
T2 construct: also called aa 1-18
T2 peptide: LEEKKGNYVVTDHGSCVR


Tests used:
[1] = molecular target: T3, EGFRvIII, full length, overexpressed on glioblastoma cells (human, UniProt P00533 298-623); assay: cell-based or functional assay
[2] = molecular target: T4, wild type human EGFR, full length, overexpressed on U87MG cells (human, UniProt P00533 25-1210); assay: cell-based or functional assay
[3] = molecular target: T3, EGFRvIII, full length, overexpressed on …; assay: flow cytometry dose-response on U87MG-EGFRvIII cells, apparent Kd
Procedure: (§1) Prior to analysis, cells were plated such that they were not more than 80% confluent on the day of analysis. Unless otherwise stated, all media are kept are 4° C. and all incubations are performed on wet ice. Cells were washed in PBS, harvested by the addition of cell dissociation buffer (Sigma), centrifuged and resuspended in complete medium at a cell density of 2×10⁶ cells/mL. Fifty μL/well of cells were distributed in a polypropylene v-bottom 96 well plate and serial 1/3 dilutions of purified mAbs starting at 100 nM were added and incubated for 2 hours. […] Cells were washed and re-suspended in medium containing Propidium iodide to exclude dead cells from analysis. Samples were filtered through a 60 μm nylon mesh filter plate (Millipore, Ireland) to remove cell aggregates. Flow cytometry analyses were performed on 2,000 viable single-cells events gated on forward scattering, side scattering parameters and propidium iodide dye exclusion using a BD-LSRFortessa flow cytometer (Becton-Dickinson Biosciences, CA, USA) and a standard filter set using BD FACSDiva™ acquisition software, according to manufacturer's instructions.
(§2) Specific detection of antibody binding was calculated as the mean fluorescent intensity of binding to each primary antibody after background level subtraction of the mean fluorescent intensity of binding of mouse IgG control. The data were analyzed with GraphPad Prism v 6.0 software using one-site specific binding with Hill slope non-linear regression curve fit model to determine Bmax (maximum specific binding) and Kdₐₚₚ (concentration needed to achieve a half-maximum binding at equilibrium) for each mAb tested.

[4] = molecular target: T1, EGFRvIII fragment amino acid residues 3 …; assay: yeast surface display, flow cytometry
[5] = molecular target: T3, EGFRvIII, full length, overexpressed on …; assay: cell-based or functional assay; remark: listed apart in the source
[6] = molecular target: T4, wild type human EGFR, full length, …; assay: cell-based or functional assay; remark: listed apart in the source
[7] = molecular target: T5, recombinant human EGFRvIII protein (extracellular domain), native (human, UniProt P00533 298-623); assay: ELISA Exp 2, purified mAb 1 ug/ml;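 further: ELISA of purified mAb binding to plate-coated antigen, native or heat/DTT-denatured, with pNPP substrate developed for 30 min and incubations at room temperature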
T5 construct: also called hEGFRvIII

[8] = molecular target: T6, recombinant human wild type EGFR protein (extracellular domain), denatured (human, UniProt P00533 25-645); assay: ELISA Exp 2, purified mAb 1 ug/ml;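 further: ELISA of purified mAb binding to plate-coated antigen, native or heat/DTT-denatured, with pNPP substrate developed for 30 min and incubations at room temperature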
T6 construct: Same protein as m23 after 95 C for 5 min in PBS with 40 mM DTT (denatured, reduced); also called wt EGFR Denatured

[9] = molecular target: T7, recombinant human EGFRvIII protein (extracellular domain), denatured (human, UniProt P00533 298-623); assay: ELISA Exp 2, purified mAb 1 ug/ml;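 further: ELISA of purified mAb binding to plate-coated antigen, native or heat/DTT-denatured, with pNPP substrate developed for 30 min and incubations at room temperature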
T7 construct: Same protein as m21 after 95 C for 5 min in PBS with 40 mM DTT (denatured, reduced); also called EGFRvIII Denatured

[10] = molecular target: T8, recombinant human wild type EGFR protein (extracellular domain), native (human, UniProt P00533 25-645); assay: ELISA Exp 2, purified mAb 1 ug/ml;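 further: ELISA of purified mAb binding to plate-coated antigen, native or heat/DTT-denatured, with pNPP substrate developed for 30 min and incubations at room temperature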
T8 construct: also called wt EGFR; EGFR WT

[11] = molecular target: T5, recombinant human EGFRvIII protein …; assay: ELISA Exp 1, mAb supernatant
[12] = molecular target: T6, recombinant human wild type EGFR …; assay: ELISA Exp 1, mAb supernatant
[13] = molecular target: T7, recombinant human EGFRvIII protein …; assay: ELISA Exp 1, mAb supernatant
[14] = molecular target: T8, recombinant human wild type EGFR …; assay: ELISA Exp 1, mAb supernatant
[15] = molecular target: T4, wild type human EGFR, full length, …; assay: flow cytometry dose-response, U87MG-EGFRwt cells
Procedure: as §1, §2

[16] = molecular target: T2, EGFRvIII fragment amino acid residues 1 …; assay: yeast surface display, flow cytometry
[17] = molecular target: T3, EGFRvIII, full length, overexpressed on …; assay: cell-based or functional assay; remark: listed apart in the source
[18] = molecular target: T3, EGFRvIII, full length, overexpressed on …; assay: flow cytometry dose-response on DKMG EGFRvIII cells, apparent Kd (n=1)
Procedure: as §1
(§3) These cells were grown in RPMI and 10% fetal bovine serum using standard culturing conditions.

[19] = molecular target: T4, wild type human EGFR, full length, …; assay: flow cytometry dose-response, U87MG EGFR wt cells
Procedure: as §1, §2

[20] = molecular target: T3, EGFRvIII, full length, overexpressed on …; assay: flow cytometry dose-response on U87MG EGFRvIII cells, apparent Kd (n=2)
Procedure: as §1, §3

[21] = molecular target: T3, EGFRvIII, full length, overexpressed on …; assay: flow cytometry dose-response on DKMG EGFRvIII cells (n=1)
Procedure: as §1, §3

Row | Binder | % survival (DM1 secondary-conjugate ADC surrogate assay, vs mouse IgG) [1] [%] | % survival (DM1 secondary-conjugate ADC surrogate assay, vs mouse IgG) [2] [%] | Kd [3] [nM] | % internalization (pHrodo surrogate assay, vs 225 mAb) [5] [%] | % internalization (pHrodo surrogate assay, vs 225 mAb) [6] [%] | ELISA absorbance 405 nm [7] [A405] | ELISA absorbance 405 nm [8] [A405] | ELISA absorbance 405 nm [9] [A405] | ELISA absorbance 405 nm [10] [A405] | ELISA absorbance 405 nm [11] [A405] | ELISA absorbance 405 nm [12] [A405] | ELISA absorbance 405 nm [13] [A405] | ELISA absorbance 405 nm [14] [A405] | binding result [15] | binding result [16] | IC50 of growth inhibition, U87MG EGFRvIII cells [17] [nM] | also measured
1 | F260-5G6 (antibody, V domains shown, Mouse hybridoma mAb) VH: EVQLQQSGAELARPGASVKMSCKASGYTFTSYWMHWVKQRPGQGLEWIGAIYPGNSDISYNQKFKGKAKLTAVTSATTAYMELSSLTNEDSAVYYCTLYDYDPDYWGQGTTLTVSS VL: not shown | 55 | 91 | 4.2 | 102 | < 2 | 1.74 | 0 | 1.74 | 0.001 | 1.45 | 0.005 | 1.94 | 0 | no binding (tested: 100 nM highest concentration) |  |  | binding result [4]: binds
2 | F266-11C8 (antibody, V domains shown, Mouse hybridoma mAb; also called 11H5 (11C8)) VH: QIQLVQSGPELKKPGETVKISCKASGYTFTTAGMQWVQKMPGKGFKWIGWINTHSGDPKYAEDFKGRFAFSLETYASTAYLQISNLKNEDTASYFCARTHIYDGYNYAMDYWGQGTSVTVSS VL: DVVMTQTPLSLPVSLGDQASISCRSSQSLVYSNGNTYLHWYLQKPGQSPKLLIYKVSNRFSGVPDRFSGSGSGTDFTLKISRVEAEDLGVYFCSQSTHVPFTFGSGTKLEIK | 55 | > 98 | 3.5 | 136 | < 2 | 1.72 | -0.001 | 1.71 | 0 | 1.56 | 0.009 | 2.1 | 0.011 | no binding (tested: 100 nM highest concentration) | binds |  | 
3 | F266-11B1 (antibody, V domains shown, Mouse hybridoma mAb) VH: QIQLVQSGPELKKPGETVKISCKASGYTFTTAGMQWVKKMPGKGFKWIGWINTHSGDPKYAEDFKGRFAFSLETYASTAYLQISNLKNEDTASYFCARTHIYDGYNYAMDYWGQGTSVTVSS VL: DVVMTQTPLSLPVSLGDQASISCRSSQSLVYSNGNTYLHWYLQKPGQSPKLLIYKVSNRFSGVPDRFSGSGSGTDFTLKISRVEAEDLGVYFCSQSTHVPFTFGSGTKLEIK | 62 | > 98 | 2.2 | 131 | < 2 | 1.72 | 0.004 | 1.77 | 0.002 | 1.67 | 0.032 | 2.2 | 0.034 | no binding (tested: 100 nM highest concentration) | binds |  | 
4 | F266-11H3 (antibody, V domains shown, Mouse hybridoma mAb) VH: QIQLVQSGPELKKPGETVKISCKASGYTFTTAGMQWVQKMPGKGFKWIGWINTHSGDPKYAEDFKGRFAFSLETYASTAYLQISNLKNEDTATYFCARTHIYDGYNYAMDYWGQGTSVTVSS VL: DVVMTQTPLSLPVSLGDQASISCRSSQSLVYSNGNTYLHWYLQKPGQSPKLLIYKVSNRFSGVPDRFSGSGSGTDFTLKISRVEAEDLGVYFCSQSTHVPFTFGSGTKLEIK | 62 | > 98 | 2.5 | 131 | < 2 | 1.78 | 0 | 1.79 | 0.001 | 1.66 | 0.041 | 2.1 | 0.053 | no binding (tested: 100 nM highest concentration) | binds |  | 
5 | F263-1A8 (antibody, V domains shown, Mouse hybridoma mAb) VH: EVQLQQSGAELVRPGALVKLSCKASGFNIKDYYMHWVKQRPEQGLEWIGWIDPENGNTIYDPKFQGKATITADTSSNTAYLQLSSLASEDTAVYYCARGWLLLWGQGTTLTVSS VL: not shown | 65 | > 98 | 2 | 100 | < 2 | 1.79 | 0.001 | 1.71 | 0.002 | 1.67 | 0.013 | 2.09 | 0.016 | no binding (tested: 100 nM highest concentration) |  |  | binding result [4]: binds
6 | hFc-4E11-MMAE (antibody, human IgG1, kappa, V domains shown, MC-vc-PAB-MMAE on reduced interchain cysteines) VH: DVQLQESGPGLVKPSQSLSLTCTVTGYSITSDYAWNWIRQFPGNKLEWMGYIGYNGRTSYNPSLKSRISITRDTSKNQFFLQLNYVTTEDTATFYCARLGRGFAYWGQGTLVTVSA VL: DILMTQSPSSMSVSLGDTVSITCHASQGINSNIGWLLQKPGKSFKGLIYHGTNLEDGVPSRFSGSGSGTDYSLTISSLESEDFADYYCVQYAQFPYTFGGGTKLEIKR |  |  |  |  |  |  |  |  |  |  |  |  |  |  |  | 0.2 | 
7 | hFc-5G6-MMAE (antibody, human IgG1, kappa, V domains shown, MC-vc-PAB-MMAE on reduced interchain cysteines) VH: EVQLQQSGAELARPGASVKMSCKASGYTFTSYWMHWVKQRPGQGLEWIGAIYPGNSDISYNQKFKGKAKLTAVTSATTAYMELSSLTNEDSAVYYCTLYDYDPDYWGQGTTLTVSS VL: not shown |  |  |  |  |  |  |  |  |  |  |  |  |  |  |  | 0.3 | IC50 of growth inhibition, DKMG EGFRvIII cells [17]: 0.3 nM
8 | hFc-13.1.2-MMAE (antibody, human IgG1, kappa, V domains shown, MC-vc-PAB-MMAE on reduced interchain cysteines) VH: QVQLVESGGGVVQPGRSLRLSCAASGFTFSSYGMHWVRQAPGKGLEWVAVIWYDGSNKYYVDSVKGRFTISRDNSKNTLYLQMNSLRAEDTAVYYCARDGWQQLAPFDYWGQGTLVTVSS VL: not shown |  |  |  |  |  |  |  |  |  |  |  |  |  |  |  | 1.9 | IC50 of growth inhibition, DKMG EGFRvIII cells [17]: 2.5 nM
9 | hFc-13.1.2 (antibody, human IgG1, kappa, V domains shown) VH: QVQLVESGGGVVQPGRSLRLSCAASGFTFSSYGMHWVRQAPGKGLEWVAVIWYDGSNKYYVDSVKGRFTISRDNSKNTLYLQMNSLRAEDTAVYYCARDGWQQLAPFDYWGQGTLVTVSS VL: not shown |  |  |  |  |  |  |  |  |  |  |  |  |  |  | binds |  | Kd [18]: 0.947 nM; binding result [19]: no binding; Kd [20]: 5.22 nM; Bmax [21]: 16500
10 | hFc-5G6 (antibody, human IgG1, kappa, V domains shown, Chimeric antibody, mouse variable regions on human IgG1 / human kappa, produced in CHO cells; also called chimeric 5G6) VH: EVQLQQSGAELARPGASVKMSCKASGYTFTSYWMHWVKQRPGQGLEWIGAIYPGNSDISYNQKFKGKAKLTAVTSATTAYMELSSLTNEDSAVYYCTLYDYDPDYWGQGTTLTVSS VL: not shown |  |  |  |  |  |  |  |  |  |  |  |  |  |  |  |  | Kd [18]: 0.832 nM; binding result [19]: no binding; Kd [20]: 1.53 nM; Bmax [21]: 16900
